Source: the RNAGym collection of RNA variant scans (doi:10.1093/molbev/msab373)

B1: Azoarcus group I ribozyme (parent)
chain: GUGCCUUGCGCCGGGAAACCACGCAAGGGAUGGUGUCAAAUUCGGCGAAACCUAAGCGCCCGCCCGGGCGUAUGGCAACGCCGAGCCAAGCUUCGGCGCCUGCGCCGAUGAAGGUGUAGAGACUAGACGGCACCCACCUAAGGCAAACGCUAUGGUGAAGGCAUAGUCCAGGGAGUGGCGAAAGUCACACAAACCGG

Variants of: B1
Assay: reverse-splicing fitness (ratio to wild type); higher = more active; in vitro selection; Mg2+ level not given
Method in brief: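 An in vitro group I ribozyme library with randomized positions was T7-transcribed and gel-purified. In triplicate, 10 pmol RNA in EPPS pH 7.5 was reacted with 50 pmoles of a 30-nt RNA substrate for 1 h at 37 °C across several added MgCl2 levels (1–48 mM), then stopped with EDTA. Products were reverse transcribed from a substrate-complementary primer, PCR-amplified and sequenced (HiSeq 4000). Fitness is a variant's read proportion after selection over that before, normalised to wild type.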
C82G A120C A145C gave a reverse-splicing fitness of 0.201.
Work on C82G A120C A145G C150G C169U U176A yielded a reverse-splicing fitness of 0.0128.
For C82G A120C A145G C150G C169U U176C, the reverse-splicing fitness was 0.0134.
For C82G A120C A145G C150G C169U U176G, the reverse-splicing fitness was 0.00789.
Variant C82G A120C A145C C150G C169U has a reverse-splicing fitness of 0.0101.
For C82G A120C A145C C150G C169G, the reverse-splicing fitness was 0.00712.
For C82G A120C A145C C150G C169A, the reverse-splicing fitness was 0.00926.
In the case of C82G A111U A145U C150U U176A, the reverse-splicing fitness is reported as 0.124.
Work on C82G A111U A145U C150U U176C yielded a reverse-splicing fitness of 0.152.
C82G A111U A145U C150U U176G showed a reverse-splicing fitness of 0.043.
In the case of C82G A120C A145C C150U C169U U176G, the reverse-splicing fitness is reported as 0.00439.
C82G A120C A145C C150U C169U U176A showed a reverse-splicing fitness of 0.0146.
Variant C82G A120C A145C C150U C169U U176C has a reverse-splicing fitness of 0.00971.
In the case of C82G A120C A145U C150U C169A U176A, the reverse-splicing fitness is reported as 0.015.
Work on C82G A120C A145U C150U C169A U176G yielded a reverse-splicing fitness of 0.00538.
C82G A120C A145U C150U C169A U176C showed a reverse-splicing fitness of 0.00984.
For C82G A120C A145C C150G C169U U176A, the reverse-splicing fitness was 0.00765.
Work on C82G A120C A145C C150G C169U U176G yielded a reverse-splicing fitness of 0.00406.
Work on C82G A120C A145C C150G C169U U176C yielded a reverse-splicing fitness of 0.0116.
C82G A111U C150A C169G gave a reverse-splicing fitness of 0.00899.
C82G A111U C150A C169U gave a reverse-splicing fitness of 0.0113.
C82G A111U C150A C169A showed a reverse-splicing fitness of 0.0114.
Variant C82G A111U C150G C169U U176C has a reverse-splicing fitness of 0.0129.
With C82G A111U C150G C169U U176A the reverse-splicing fitness was 0.00863.
In the case of C82G A111U C150G C169U U176G, the reverse-splicing fitness is reported as 0.00728.
With C82G A120C A145G C150A C169U the reverse-splicing fitness was 0.0126.
In the case of C82G A120C A145G C150A C169A, the reverse-splicing fitness is reported as 0.0104.
Work on C82G A120C A145G C150A C169G yielded a reverse-splicing fitness of 0.00895.
For C82G A120C A145G C169G U176A, the reverse-splicing fitness was 0.0164.
Variant C82G A120C A145G C169G U176C has a reverse-splicing fitness of 0.0241.
With C82G A120C A145G C169G U176G the reverse-splicing fitness was 0.00417.
In the case of C82G A120C A145C U176A, the reverse-splicing fitness is reported as 0.0678.
C82G A120C A145C U176G gave a reverse-splicing fitness of 0.0157.
For C82G A120C A145C U176C, the reverse-splicing fitness was 0.0842.
Work on C82G A120C A145G C150U C169U U176G yielded a reverse-splicing fitness of 0.00474.
C82G A120C A145G C150U C169U U176A gave a reverse-splicing fitness of 0.0184.
C82G A120C A145G C150U C169U U176C gave a reverse-splicing fitness of 0.0155.
Work on C82G A120C A145C C150U C169A U176A yielded a reverse-splicing fitness of 0.0117.
C82G A120C A145C C150U C169A U176G gave a reverse-splicing fitness of 0.00525.
Variant C82G A120C A145C C150U C169A U176C has a reverse-splicing fitness of 0.00587.
In the case of C82G A120C A145G C169U, the reverse-splicing fitness is reported as 0.0256.
Work on C82G A120C A145G C169A yielded a reverse-splicing fitness of 0.0105.
C82G A120C A145G C169G gave a reverse-splicing fitness of 0.00863.
For C82G A111U C169G, the reverse-splicing fitness was 0.00946.
With C82G A111U C169A the reverse-splicing fitness was 0.00938.
Work on C82G A111U C169U yielded a reverse-splicing fitness of 0.0134.
In the case of C82G A111U C150A C169G U176C, the reverse-splicing fitness is reported as 0.0229.
For C82G A111U C150A C169G U176A, the reverse-splicing fitness was 0.021.
C82G A111U C150A C169G U176G showed a reverse-splicing fitness of 0.0075.
Work on C82G A111U A145U C150U C169G yielded a reverse-splicing fitness of 0.00884.
Work on C82G A111U A145U C150U C169U yielded a reverse-splicing fitness of 0.0113.
In the case of C82G A111U A145U C150U C169A, the reverse-splicing fitness is reported as 0.00988.
C82G A120C A145G C150A showed a reverse-splicing fitness of 0.0297.
C82G A120C A145G C150G showed a reverse-splicing fitness of 0.0242.
Work on C82G A120C A145G C150U yielded a reverse-splicing fitness of 0.163.
C82G A111U A145U C150U C169A U176G gave a reverse-splicing fitness of 0.00678.
For C82G A111U A145U C150U C169A U176C, the reverse-splicing fitness was 0.0125.
C82G A111U A145U C150U C169A U176A showed a reverse-splicing fitness of 0.0143.
C82G A120C A145C C150U C169G U176G showed a reverse-splicing fitness of 0.00532.
With C82G A120C A145C C150U C169G U176A the reverse-splicing fitness was 0.0259.
C82G A120C A145C C150U C169G U176C gave a reverse-splicing fitness of 0.013.
In the case of C82G A120C A145C C150A C169G U176C, the reverse-splicing fitness is reported as 0.0164.
With C82G A120C A145C C150A C169G U176A the reverse-splicing fitness was 0.0302.
C82G A120C A145C C150A C169G U176G gave a reverse-splicing fitness of 0.0056.
With C82G A120C A145U C150G C169U U176G the reverse-splicing fitness was 0.00547.
C82G A120C A145U C150G C169U U176A showed a reverse-splicing fitness of 0.00813.
Variant C82G A120C A145U C150G C169U U176C has a reverse-splicing fitness of 0.012.
In the case of C82G A111U A145U C169U, the reverse-splicing fitness is reported as 0.0113.
For C82G A111U A145U C169A, the reverse-splicing fitness was 0.00754.
Work on C82G A111U A145U C169G yielded a reverse-splicing fitness of 0.00896.
In the case of C82G A120C A145C C169G U176A, the reverse-splicing fitness is reported as 0.0262.
For C82G A120C A145C C169G U176G, the reverse-splicing fitness was 0.00428.
Work on C82G A120C A145C C169G U176C yielded a reverse-splicing fitness of 0.0161.
C82G A120C A145C C150U U176G gave a reverse-splicing fitness of 0.00925.
Work on C82G A120C A145C C150U U176A yielded a reverse-splicing fitness of 0.0221.
In the case of C82G A120C A145C C150U U176C, the reverse-splicing fitness is reported as 0.0273.
C82G A111U A145U C150G C169G U176C gave a reverse-splicing fitness of 0.00646.
With C82G A111U A145U C150G C169G U176G the reverse-splicing fitness was 0.00649.
With C82G A111U A145U C150G C169G U176A the reverse-splicing fitness was 0.0083.
With C82G A120C A145U C150G C169G U176C the reverse-splicing fitness was 0.00634.
For C82G A120C A145U C150G C169G U176A, the reverse-splicing fitness was 0.00782.
C82G A120C A145U C150G C169G U176G showed a reverse-splicing fitness of 0.00427.
For C82G A111U A145U C169U U176G, the reverse-splicing fitness was 0.00509.
For C82G A111U A145U C169U U176A, the reverse-splicing fitness was 0.0146.
